Assay results published in paper PMC6006169, “Conformational switching in the coiled-coil domains of a proteasomal ATPase regulates substrate processing” (Nature Communications, 2018).
Positions count from the first letter of the chain named. Names may count otherwise.

Experiments:
[1] = biological target: T1, PAN (proteasome-activating nucleotidase) (Methanocaldococcus jannaschii, UniProt Q58576, L73C/M87C); test: NADH-coupled ATP regenerating ATPase assay ([…] nm); type: biochemical; settings: oxidized (tetrathionate): coiled-coil disulfide crosslinked C1 and C3, no saturation with ATP; pH 7.5, 37 °C, 20 mM MgCl2; original residue 73 not given
T1 construct: full-length, pRSETA, E. coli BL21(DE3)-RIL, heat precipitation, anion exchange and size exclusion; no tag mentioned; homohexamer

[2] = biological target: CC-OB domain fragment of PAN-M87C (subcomplex I) (Methanococcus jannaschii); test: cross-linking; PAN-M87C after partial trypsin proteolysis and gel filtration (Superose 12); fractions 1 and 3 in 1 mM tetrathionate 1 h at room temperature, desalted, non-reducing SDS-PAGE, silver stain
purified protein = substrate: Nc1ncnc2c1ncn2[C@@H]1O[C@H](COP(=O)(O)OP(=O)(O)OP(=O)(O)O)[C@@H](O)[C@H]1O; test: purified protein; type: biochemical, Methanocaldococcus jannaschii; settings: reduced (uncrosslinked), pH 7.5, 37 °C
[3] = biological target: the molecule itself; test: cross-linking; disulfide cross-linking of engineered cysteines; 1 mM tetrathionate, 1-2 h, room temperature, 50 mM Tris pH 7.5 + 5% glycerol, no nucleotide, PAN at or below 0.25 mg/ml; desalted on G50, non-reducing SDS-PAGE, Coomassie, densitometry of monomers vs. dimers
[4] = biological target: the molecule itself; test: native gel or EMSA; native-PAGE of oxidized PAN cysteine mutants

T1 sequence (Q58576 whole entry L73C/M87C): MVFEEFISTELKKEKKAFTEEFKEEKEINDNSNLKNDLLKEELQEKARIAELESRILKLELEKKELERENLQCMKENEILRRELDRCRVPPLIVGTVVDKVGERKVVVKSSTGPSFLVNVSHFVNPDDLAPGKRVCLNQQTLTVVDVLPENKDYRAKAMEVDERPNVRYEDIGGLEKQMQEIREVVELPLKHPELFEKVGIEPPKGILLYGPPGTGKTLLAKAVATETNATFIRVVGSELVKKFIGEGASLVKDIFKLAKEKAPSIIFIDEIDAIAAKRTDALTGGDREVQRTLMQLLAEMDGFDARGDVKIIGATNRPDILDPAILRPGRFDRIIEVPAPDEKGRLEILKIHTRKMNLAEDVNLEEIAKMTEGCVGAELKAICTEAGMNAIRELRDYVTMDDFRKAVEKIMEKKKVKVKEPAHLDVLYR

Nc1ncnc2c1ncn2[C@@H]1O[C@H](COP(=O)(O)OP(=O)(O)OP(=O)(O)O)[C@@H](O)[C@H]1O [ATP]
Km [1]: > 3000 µM

CC-OB domain fragment of PAN-M87C (subcomplex I) (domain or fragment)
percent cross-linked dimers [2]: 100%

B1: PAN 59C (enzyme, Methanococcus jannaschii, UniProt Q58576 1-430, looked up)
chain: MVFEEFISTELKKEKKAFTEEFKEEKEINDNSNLKNDLLKEELQEKARIAELESRILKCELEKKELERENLQLMKENEILRRELDRMRVPPLIVGTVVDKVGERKVVVKSSTGPSFLVNVSHFVNPDDLAPGKRVCLNQQTLTVVDVLPENKDYRAKAMEVDERPNVRYEDIGGLEKQMQEIREVVELPLKHPELFEKVGIEPPKGILLYGPPGTGKTLLAKAVATETNATFIRVVGSELVKKFIGEGASLVKDIFKLAKEKAPSIIFIDEIDAIAAKRTDALTGGDREVQRTLMQLLAEMDGFDARGDVKIIGATNRPDILDPAILRPGRFDRIIEVPAPDEKGRLEILKIHTRKMNLAEDVNLEEIAKMTEGCVGAELKAICTEAGMNAIRELRDYVTMDDFRKAVEKIMEKKKVKVKEPAHLDVLYR
notes: Expressed from pRSETA; no tag named; source: E. coli BL21-DE3-RIL, purified (heat precipitation, anion exchange, size exclusion)
Km (purified protein; 20 mM MgCl2, original residue 59 not given): 436 ± 29 µM | percent cross-linked [3]: 69%

B2: PAN 87+59C (enzyme, Methanococcus jannaschii, UniProt Q58576 1-430, looked up)
chain: B1 chain with M87C
notes: as for B1
binding result [3]: binds

B3: PAN 87+80C (enzyme, Methanococcus jannaschii, UniProt Q58576 1-430, looked up)
chain: B1 chain with C59L, L80C, M87C
notes: as for B1
binding result [3]: binds

B4: PAN 87+73C (enzyme, Methanococcus jannaschii, UniProt Q58576 1-430, looked up)
chain: B1 chain with C59L, L73C, M87C
notes: Expressed from pRSETA; no tag named; also called PAN 87C+73C; source: E. coli BL21-DE3-RIL, purified (heat precipitation, anion exchange, size exclusion)
stoichiometry N [4]: 6

B5: PAN-M87C (proteasome-activating nucleotidase, M87C mutant) (enzyme, Methanococcus jannaschii, UniProt Q58576 1-430, looked up)
chain: B1 chain with C59L, M87C
notes: Expressed from pRSETA; The fraction F1 after partial trypsin proteolysis is called full-length or near full length; also called PAN-87C; M87C PAN; source: E. coli BL21-DE3-RIL, purified (heat precipitation, anion exchange, size exclusion)
stoichiometry N [4]: 6

B6: PAN 87+73+59C triple mutant (enzyme, Methanococcus jannaschii, UniProt Q58576 1-430, looked up)
chain: B1 chain with L73C, M87C
notes: Expressed from pRSETA; no tag named; also called PAN 87C+73C+59C; source: E. coli BL21-DE3-RIL, purified (heat precipitation, anion exchange, size exclusion)
percent cross-linked [3]: 74%

B7: PAN 80+66C (enzyme, Methanococcus jannaschii, UniProt Q58576 1-430, looked up)
chain: B1 chain with C59L, L66C, L80C
notes: as for B1
percent cross-linked [3]: 72% | stoichiometry N [4]: 6

B8: PAN 80+59C (enzyme, Methanococcus jannaschii, UniProt Q58576 1-430, looked up)
chain: B1 chain with L80C
notes: as for B1
binding result [3]: binds

B9: PAN 73+66C (enzyme, Methanococcus jannaschii, UniProt Q58576 1-430, looked up)
chain: B1 chain with C59L, L66C, L73C
notes: as for B1
binding result [3]: binds

B10: PAN 73C (enzyme, Methanococcus jannaschii, UniProt Q58576 1-430, looked up)
chain: B1 chain with C59L, L73C
notes: as for B1
binding result [3]: binds

B11: PAN 80+73C (enzyme, Methanococcus jannaschii, UniProt Q58576 1-430, looked up)
chain: B1 chain with C59L, L73C, L80C
notes: as for B1
binding result [3]: binds

B12: PAN 80C (enzyme, Methanococcus jannaschii, UniProt Q58576 1-430, looked up)
chain: B1 chain with C59L, L80C
notes: as for B1
binding result [3]: binds

B13: PAN (proteasome-activating nucleotidase) (Methanocaldococcus jannaschii DSM 2661; L59C/L73C/M87C) (protein)
chain: B1 chain with L73C, M87C
notes: full-length, pRSETA, E. coli BL21(DE3)-RIL, heat precipitation, anion exchange and size exclusion; no tag mentioned; homohexamer
Km (purified protein; 20 mM MgCl2, original residues 73 and 59 not given): 580 ± 64 µM

B14: PAN 66C (enzyme, Methanococcus jannaschii, UniProt Q58576 1-430, looked up)
chain: B1 chain with C59L, L66C
notes: as for B1
binding result [3]: binds
